experiment: yeast display, Sf9 membrane polyspecificity reagent, FACS + sequencing; frameworks hold sequencing errors
Method in brief: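 Genes from sorted yeast were amplified by colony PCR, read by MiSeq 2 × 250 sequencing and filtered on CDR length. These cells carried a synthetic nanobody library in Saccharomyces cerevisiae BJ5465 and were sorted by FACS into low and high (top ~1%) gates on anti-HA and streptavidin fluorescence. Polyreactivity is labelled according to the gate of origin.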

Sequence | polyreactivity (PSR sort gate)
QVQLVESGGGLVQAGGSLRLSCAASGIILYDYAMGWYRQAPGKERELVAGINRSGGITYYADSVKGRFTISRDNAKNTVYLQMNSLKPEDTAVYYCNAVFRYGATRSYRYDYWGQGTQVTVSS | high polyreactivity
QVQLVESGGGLVQAGGSLRLSCAASGIILYGYAMGWSRQAPGKERELVAAITKSGGSTYYADSVKGRFTISRDNAKNTVYLQMNSLKPEDTAVYYCAAKRWGIWYYGYRPDDYWGQGTQVTVSS | low polyreactivity
QVQLVESGGGLVQAGGSLRLSCAASGIISGRTGMGWYRQATGKERELVASISDSGSSTYYADSVKGRFTISRDNAKNTVYLQMNSLKPEDTAVYYCATDLLASRYGYWGQGTQVTVSS | low polyreactivity
QVQLVESGGGLVQAGGSLRLSCAASGIISIFNVMGWYRQAPGKERELVASITGRGGSTFYADSVKGRFTISRDNAKNTVYLQMNRLKPEDTAVYYCATDTGYTYPVTGLYDYWGQGTQVTVSS | low polyreactivity
QVQLVESGGGLVQAGGSLRLSCAASGIISYYYAMGWYRQAPGKERELVAAISSSGNTYYADSVKGRFTISRDNAKNTVYLQMNSLKPEDTAVYYCAAESYGYYAADDDNYLTWYDYWGQGTQVTVSS | high polyreactivity
QVQLVESGGGLVQAGGSLRLSCAASGIIVPNAMGWYRPAPGKERELVAAMSRSGGSTNYADSVKGRFTISRDNAKNTVYLQMNSLKPEDTAVYYCATKYNADTRYDYWGQGTQVTVSS | low polyreactivity
QVQLVESGGGLVQAGGSLRLSCAASGIIYAYYAMGWYRLAPGKEREWVAGISSSGITNYADSVKGRFTISRDNAKNTVYLQMNSLKPEDTAVYSCATDWYYWRHFYWVRRGVRYYYWGQGTQVTVSS | high polyreactivity
QVQLVESGGGLVQAGGSLRLSCAASGIKLYYYAMGWYRQAPGKETEFVAAIAGSGGSTRYADSVKGRFTISRDNAKKTVYLQMNSLKPEDTAVYYFAARSRYGYITFDYWGQGTQVTVSS | high polyreactivity
QVQLVESGGGLVQAGGSLRLSCAASGILFGGYVMGWDRQAPGKERELVAAISRGGGITYYADSVKGRFTISRDNAKNTVYLQMNSLKPEDPAVYYCNAGVYAGQTGYDYWGQGTQVTVSS | high polyreactivity
QVQLVESGGGLVQAGGSLRLSCAASGILFRFYAMGWYRQAPGKERELVAAISSGGSTYYADSVKGRFTISRDNAKNTVYLQMNSLKPEDTAVYYCNAGRKSTLVGYVRFYYWGQGTQVTVSS | high polyreactivity
QVQLVESGGGLVQAGGSLRLSCAASGILRANAIGWYRQAPGKERELVATINGDGATYADSVKGRFTISRDNAKNTVYLQLNSLKPEDTAVYYCAAGGGWVVKYDYWGQGTQVTVSS | low polyreactivity
QVQLVESGGGLVQAGGSLRLSCAASGINFDDYAMGWYRQAPGTERELVAAITWNGGRTYYADSVKGRFTISRDNAKNTVYLKMNSLKPEDTEVYYCAARITNPAKYNYWGQGTQVTVSS | high polyreactivity
QVQLVESGGGLVQAGGSLRLSCAASGINFRSYAMGWYRQAPGKERELVAAISSTGRTYYADSVKGRFTISRDNAKNTVYLQMISLKPEDTAVYYCNSKRYIWGQGTQVTVSS | high polyreactivity
QVQLVESGGGLVQAGGSLRLSCAASGINFTVYAMGWYRQAPGKVRELVATISRRGGNTFYADSVKGRVTISRDNAKKTVYLKMNSLTPEDTAVYYCAARRYVDYRWDYGYWGQGTQVTVSS | high polyreactivity
QVQLVESGGGLVQAGGSLRLSCAASGINFYSYAMGWYRQAPAKERELVAAITLTVGTTYYADSVKGRFTISRDIEKNTVSLKMNSVKREDTACYYCAAQYWWWSRFEYESWGQGTQVTVSS | low polyreactivity
QVQLVESGGGLVQAGGSLRLSCAASGINIKYNTMGWYRQAPGKERELVAAISSSGGTKYYADSVKGRFTISRDNAKNTVYLQMNSLKPEDTAVYYCAAGANAQRVPNGDYWGQGTQVTVSS | low polyreactivity
